Here are results for four molecules from publication PMC4041446, “Eukaryotic and archaeal TBP and TFB/TF(II)B follow different promoter DNA bending pathways”.

For data set [1], the target named is SaTBP;SaTFB (TFB1) (Sulfolobus acidocaldarius;Sulfolobus acidocaldarius) (UniProt Q9UWN7). The experiment in a line: smFRET. The conditions noted are these: smFRET: N70 buffer (Mj) or N65 buffer (Sa), compositions in Table 1 not in the material, Sa EMSA: 10 mM MOPS pH 6.5, 180 mM NaCl, 20 mM KOAc, 11 mM MgCl2, 10% ….
For data set [2] the target is unchanged. The experiment in a line: smFRET titration (confocal). The conditions noted are these: smFRET: N70 buffer (Mj) or N65 buffer (Sa), compositions in Table 1 not in the material, Sa EMSA: 10 mM MOPS pH 6.5, 180 mM NaCl, 20 mM KOAc, 11 mM MgCl2, 10% ….
Data set [3] deals with T1, MjTBP;MjTFB (Methanocaldococcus jannaschii;Methanocaldococcus jannaschii) (UniProt Q57930+Q58192+Q58192).
T1 sequence 1: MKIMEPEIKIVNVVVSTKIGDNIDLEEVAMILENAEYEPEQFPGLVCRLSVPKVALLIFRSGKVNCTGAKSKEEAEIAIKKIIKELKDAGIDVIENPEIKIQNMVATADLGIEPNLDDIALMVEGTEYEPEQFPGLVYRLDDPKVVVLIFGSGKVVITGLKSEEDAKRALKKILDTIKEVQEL
T1 sequence 2: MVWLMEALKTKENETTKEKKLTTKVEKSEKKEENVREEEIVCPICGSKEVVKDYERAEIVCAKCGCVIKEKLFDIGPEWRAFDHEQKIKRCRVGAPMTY
T1 sequence 3: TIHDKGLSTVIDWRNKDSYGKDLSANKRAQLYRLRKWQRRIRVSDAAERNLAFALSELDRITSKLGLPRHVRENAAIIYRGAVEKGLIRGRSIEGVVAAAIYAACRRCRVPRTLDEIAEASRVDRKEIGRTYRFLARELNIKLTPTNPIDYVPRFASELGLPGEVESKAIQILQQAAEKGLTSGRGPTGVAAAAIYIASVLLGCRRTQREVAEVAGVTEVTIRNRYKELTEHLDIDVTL
The experiment in a line: smFRET. As to conditions: MjTBP + MjTFB; smFRET: N70 buffer (Mj) or N65 buffer (Sa), compositions in Table 1 not in the material; Sa EMSA: 10 mM MOPS pH 6.5, 180 mM NaCl, 20 mM KOAc, 11 mM MgCl2, 10% ….

For a further data set, the target named is T2, ScTBP (Saccharomyces cerevisiae, UniProt P13393 1-240).
T2 sequence: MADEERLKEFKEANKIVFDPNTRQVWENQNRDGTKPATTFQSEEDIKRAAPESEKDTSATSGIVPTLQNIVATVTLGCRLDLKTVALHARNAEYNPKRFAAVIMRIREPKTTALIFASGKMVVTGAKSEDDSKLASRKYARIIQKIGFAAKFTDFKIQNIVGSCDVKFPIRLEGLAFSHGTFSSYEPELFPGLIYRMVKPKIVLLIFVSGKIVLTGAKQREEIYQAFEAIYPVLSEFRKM
The experiment in a line: smFRET titration (confocal); smFRET: N70 buffer (Mj) or N65 buffer (Sa), compositions in Table 1 not in the material; Sa EMSA: 10 mM MOPS pH 6.5, 180 mM NaCl, 20 mM KOAc, 11 mM MgCl2, 10% glycerol, 5 mM DTT, 1 ug BSA, 100 ug/ml heparin, 65 C 5 min. As to conditions: protein: recombinant; label: donor and ATTO647n acceptor.

In a further data set the target is T3, ScTBP;ScTF(II)B (Saccharomyces cerevisiae;Saccharomyces …, UniProt P13393;P29055 1-240;1-345, |).
T3 sequence 1: T2 sequence
T3 sequence 2: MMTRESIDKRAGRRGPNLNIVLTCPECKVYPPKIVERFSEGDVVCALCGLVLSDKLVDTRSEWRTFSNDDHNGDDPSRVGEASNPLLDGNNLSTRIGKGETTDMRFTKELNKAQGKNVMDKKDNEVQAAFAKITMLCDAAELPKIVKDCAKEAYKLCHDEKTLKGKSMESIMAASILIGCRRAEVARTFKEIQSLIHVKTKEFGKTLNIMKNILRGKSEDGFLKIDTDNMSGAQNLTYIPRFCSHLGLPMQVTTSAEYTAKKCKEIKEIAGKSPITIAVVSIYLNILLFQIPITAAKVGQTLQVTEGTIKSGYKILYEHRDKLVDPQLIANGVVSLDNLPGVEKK
The experiment in a line: smFRET; TF(II)B stabilizes fully bent state; smFRET: N70 buffer (Mj) or N65 buffer (Sa), compositions in Table 1 not in the material; Sa EMSA: 10 mM MOPS pH 6.5, 180 mM NaCl, 20 mM KOAc, 11 mM MgCl2, 10% glycerol, 5 mM DTT, 1 ug BSA, 100 ug/ml heparin, 65 C 5 min. As to conditions: protein: recombinant;recombinant; tags: ;; copies: 1;1; label: donor and ATTO647n acceptor. Background: A gel shift assay detects complexes by their altered migration in electrophoresis.

The target in another data set is T4, MjTBP (Methanocaldococcus jannaschii, UniProt Q57930 1-183).
T4 sequence: T1 sequence 1
The experiment in a line: smFRET titration (confocal); smFRET: N70 buffer (Mj) or N65 buffer (Sa), compositions in Table 1 not in the material; Sa EMSA: 10 mM MOPS pH 6.5, 180 mM NaCl, 20 mM KOAc, 11 mM MgCl2, 10% glycerol, 5 mM DTT, 1 ug BSA, 100 ug/ml heparin, 65 C 5 min. The conditions noted are these: protein: recombinant; label: Cy3B or ATTO532 donor, ATTO647n acceptor.

Chain of SaTBP;SaTFB (TFB1) (Sulfolobus acidocaldarius;Sulfolobus acidocaldarius) (Q9UWN7 whole entry, looked up): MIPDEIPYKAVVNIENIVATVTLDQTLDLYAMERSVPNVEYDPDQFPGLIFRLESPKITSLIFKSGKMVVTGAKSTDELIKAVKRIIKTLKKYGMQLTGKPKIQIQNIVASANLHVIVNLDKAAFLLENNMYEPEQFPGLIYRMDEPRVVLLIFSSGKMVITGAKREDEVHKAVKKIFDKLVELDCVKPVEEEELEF

In data set [1] (6 uM SaTBP, 5 uM SaTFB), “CGGACCGAAAGCGCGACCATCGCCGGAGATTGGAGTAAAGTTTAAATACTG (double strand) [DNASSV (SSV T6 promoter)]” gave a binding signal (% high FRET population) of 92. Further, the Kd (commonly the constant that tells how readily two partners part at equilibrium) in data set [2] (SaTBP titrated, SaTFB 3 uM (Fig S7) or 2 uM) came out at 930 nM; in data set [2] (SaTFB titrated, 14 uM SaTBP), 363 nM.

As to DNASSV-BRE, the binding signal (% high FRET population) was found to be 62 in data set [3] and 29 in data set [1] (SaTBP + SaTFB, main text says no second population).

B1: DNAH2B (H2B promoter) (dsDNA)
DNA 1: CTTCACCTTATTTGCATAAGCGATTCTATATAAAAGCGCCTCGCTCTACCCTGCTCACGCTGTTTTTCCTTTTCGTTGGC
DNA 2: GCCAACGAAAAGGAAAAACAGCGTGAGCAGGGTAGAGCGAGGCGCTTTTATATAGAATCGCTTATGCAAATAAGGTGAAG
Take B1: in the data set with ScTBP, the Kd was 4.2 ± 1.2 nM. Moreover, the binding result with ScTBP;ScTF(II)B is reported as “binds”.

B2: DNASSV (SSV T6 promoter) (dsDNA)
DNA 1: CGGACCGAAAGCGCGACCATCGCCGGAGATTGGAGTAAAGTTTAAATACTG
DNA 2: CAGTATTTAAACTTTACTCCAATCTCCGGCGATGGTCGCGCTTTCGGTCCG
With B2, the Kd with MjTBP is 48 ± 6 nM.
